Reference: patent US20200408781A1

Experiments:
[1] = target: p217+ tau in pooled CSF from AD subjects (human tau protein or tau fragments phosphorylated at T217 and/or T212) (human) (UniProt P10636); test: Simoa sandwich ELISA, pT3 capture; pooled AD CSF at 1:2 dilution
[2] = target: p217+ tau in pooled CSF from AD subjects (human tau protein or tau fragments phosphorylated at T217 and/or T212) (human) (UniProt P10636); test: Simoa sandwich ELISA, pT3 capture; pooled AD CSF at 1:4 dilution
[3] = target: p217+ tau in pooled CSF from AD subjects (human tau protein or tau fragments phosphorylated at T217 and/or T212) (human) (UniProt P10636); test: Simoa sandwich ELISA, pT3 capture; pooled AD CSF at 1:8 dilution
[4] = target: p217+ tau in pooled CSF from AD subjects (human tau protein or tau fragments phosphorylated at T217 and/or T212) (human) (UniProt P10636); test: Simoa sandwich ELISA, pT3 capture; pooled AD CSF at 1:16 dilution
[5] = target: p217+ tau in pooled CSF from AD subjects (human tau protein or tau fragments phosphorylated at T217 and/or T212) (human) (UniProt P10636); test: Simoa sandwich ELISA, pT3 capture; pooled AD CSF at 1:32 dilution
[6] = target: p217+ tau in pooled CSF from AD subjects (human tau protein or tau fragments phosphorylated at T217 and/or T212) (human) (UniProt P10636); test: Simoa sandwich ELISA, pT3 capture; pooled AD CSF at 1:64 dilution

Sequence of p217+ tau in pooled CSF from AD subjects (human tau protein or tau fragments phosphorylated at T217 and/or T212) (human) (P10636 other isoform, or with tags, fused parts or gaps limits assumed): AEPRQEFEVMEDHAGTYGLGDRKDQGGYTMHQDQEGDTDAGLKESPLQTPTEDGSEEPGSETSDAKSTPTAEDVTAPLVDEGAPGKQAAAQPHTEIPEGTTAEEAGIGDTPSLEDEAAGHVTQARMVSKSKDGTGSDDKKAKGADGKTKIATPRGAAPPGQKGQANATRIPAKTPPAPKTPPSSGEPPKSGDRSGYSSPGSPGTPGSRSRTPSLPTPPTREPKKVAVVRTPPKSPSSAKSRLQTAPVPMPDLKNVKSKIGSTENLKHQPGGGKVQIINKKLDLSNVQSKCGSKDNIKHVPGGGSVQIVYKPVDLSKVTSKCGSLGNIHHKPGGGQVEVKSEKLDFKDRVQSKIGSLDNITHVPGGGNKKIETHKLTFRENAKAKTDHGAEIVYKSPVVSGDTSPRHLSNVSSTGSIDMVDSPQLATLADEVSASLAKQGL

S/N (Signal/Noise) [1]: 525
S/N (Signal/Noise) [2]: 262
S/N (Signal/Noise) [3]: 147
S/N (Signal/Noise) [4]: 75
S/N (Signal/Noise) [5]: 35
S/N (Signal/Noise) [6]: 19
Substance: Quanterix tau 2.0 assay detector (antibody)
